Tests used:
[1] = target: T1, recombinant cMet/HGFR with c-terminal His-tag, Cy5-labeled (UniProt P08581 25-932, limits assumed, Cy5 label (reacted with Cy5 Mono NHS Ester; sites not stated)); experiment: competitive TR-FRET (Eu-amivantamab/Cy5-c-MET), EC50 ratio vs Reference Material; Ex. 2 Formulation 3 (acetate), 1 month at 40 C
T1 construct: Commercial protein; also called Cy5-c-MET; Cy5-labeled c-MET antigen; not shown: C-terminal His-tag
Text: (§1) In this procedure, varying concentrations of unlabeled bispecific EGFR-cMet antibody sample compete with donor fluorophore (Europium (Eu) chelate) labeled bispecific EGFR-cMet antibody for binding to an acceptor fluorophore (Cy5)-labeled c-MET antigen. Excitation of the donor fluorophore results in a transfer of energy to the bound acceptor fluorophore (FRET process). The resultant FRET is detected by emission of light at 665 nm using a microplate reader capable of measuring time-resolved fluorescence. Sample dose response curves are compared to the Reference Material (RM).
(§2) c-MET Binding Materials and Methods. Certified commercial cMet, a recombinant cMet/HGFR with c-terminal His-tag is reacted with certified commercial Cy5 Mono NHS Ester to produce Cy5-labeled c-MET. Validated bispecific EGFR-cMet antibody is reacted with certified commercial Europium (Eu) chelate to produce Eu labeled bispecific EGFR-cMet antibody. […] Fluorescence is then measured by spectrophotometry at 665 nm, plotted against antibody concentration and analyzed by a four-parameter logistic model. The antibody concentration required to obtain half of the maximum fluorescence response (EC50) is determined for RM, assay control and samples. The potencies of assay control and samples are calculated based on the ratio of the sample (or control) and RM EC50 values and reported as a percentage activity relative to the RM.

[2] = target: T1, recombinant cMet/HGFR with c-terminal …; experiment: competitive TR-FRET (Eu-amivantamab/Cy5-c-MET), EC50 ratio vs Reference Material; Ex. 12 drug product with rHuPH20, 3 months at 40 C
Text: as §1, §2

[3] = target: T1, recombinant cMet/HGFR with c-terminal …; experiment: competitive TR-FRET (Eu-amivantamab/Cy5-c-MET), EC50 ratio vs Reference Material; Ex. 2 Formulation 1 (10 mM histidine), 3 months at 5 C
Text: as §1, §2

[4] = target: T2, recombinant human EGFR/ErbB1/HER1 with C-terminal His tag, Cy5-labeled (human, UniProt P00533 25-645, Cy5 label (reacted with Cy5 Mono NHS Ester; sites not stated)); experiment: competitive TR-FRET (Eu-amivantamab/Cy5-EGFR), EC50 ratio vs Reference Material; Ex. 2 Formulation 2 (50 mM histidine), T0, 25 C table
T2 construct: Commercial protein; also called Cy5-EGFR; Cy5-labeled EGFR antigen; not shown: C-terminal His tag
Text: as §1, with “EGFR” for “c-MET”, “RM.” for “Reference Material (RM).”
as §2, with “EGFR” for “c-MET”, “EGFR,” for “cMet,”, “human EGFR/ErbB1/HER1” for “cMet/HGFR”, “C-terminal His tag” for “c-terminal His-tag”, “EGFR.” for “c-MET.”, “Eu-labeled” for “Eu labeled”

[5] = target: T1, recombinant cMet/HGFR with c-terminal …; experiment: competitive TR-FRET (Eu-amivantamab/Cy5-c-MET), EC50 ratio vs Reference Material; Ex. 12 drug product with rHuPH20, 0 months, 5 C table
Text: as §1, §2

[6] = target: T2, recombinant human EGFR/ErbB1/HER1 with …; experiment: competitive TR-FRET (Eu-amivantamab/Cy5-EGFR), EC50 ratio vs Reference Material; Ex. 11 drug product, 12 months at 5 C
Text: as §1, with “EGFR” for “c-MET”, “RM.” for “Reference Material (RM).”
as §2, with “EGFR” for “c-MET”, “EGFR,” for “cMet,”, “human EGFR/ErbB1/HER1” for “cMet/HGFR”, “C-terminal His tag” for “c-terminal His-tag”, “EGFR.” for “c-MET.”, “Eu-labeled” for “Eu labeled”

[7] = target: T1, recombinant cMet/HGFR with c-terminal …; experiment: competitive TR-FRET (Eu-amivantamab/Cy5-c-MET), EC50 ratio vs Reference Material; Ex. 2 Formulation 3 (acetate), 3 months at 5 C
Text: as §1, §2

[8] = target: T2, recombinant human EGFR/ErbB1/HER1 with …; experiment: competitive TR-FRET (Eu-amivantamab/Cy5-EGFR), EC50 ratio vs Reference Material; Ex. 12 drug product with rHuPH20, 9 months at 5 C
Text: as §1, with “EGFR” for “c-MET”, “RM.” for “Reference Material (RM).”
as §2, with “EGFR” for “c-MET”, “EGFR,” for “cMet,”, “human EGFR/ErbB1/HER1” for “cMet/HGFR”, “C-terminal His tag” for “c-terminal His-tag”, “EGFR.” for “c-MET.”, “Eu-labeled” for “Eu labeled”

- cMET Binding % activity relative to RM [1]: 100%
- cMET Binding activity relative to Reference Material (%) [2]: 68%
- cMET Binding % activity relative to RM [3]: 100%
- EGFR Binding % activity relative to RM [4]: 103%
- cMET Binding activity relative to Reference Material (%) [5]: 91%
- EGFR Binding activity relative to Reference Material (%) [6]: 86%
- cMET Binding % activity relative to RM [7]: 109%
- EGFR Binding activity relative to Reference Material (%) [8]: 87%
B1: amivantamab (bispecific antibody, human IgG1, kappa)
heavy 1: not shown
light 1: not shown
heavy 2: not shown
light 2: DIQMTQSPSSVSASVGDRVTITCRASQGISNWLAWFQHKPGKAPKLLIYAASSLLSGVPSRFSGSGSGTDFTLTISSLQPEDFATYYCQQANSFPITFGQGTRLEIKRTVAAPSVFIFPPSDEQLKSGTASVVCLLNNFYPREAKVQWKVDNALQSGNSQESVTEQDSKDSTYSLSSTLTLSKADYEKHKVYACEVTHQGLSSPVTKSFNRGEC
notes: The samples tested were high concentration (160 mg/mL) formulations, fresh or stored or stressed; also called JNJ-61186372; bispecific EGFR-cMet antibody
